Measured values as given in a protein production outcome set (Wang et al. 2014).

Assay: label from the status in PepcDB records

Sequence	protein production
MPSCAVEGNPSVHTPHPPRPLYPPRPAMPPGESDESLGGQLRGRPEGAAPHPVALLMARHWESTYDYAVICLASSANVASIVTAGAFQQVVGRLMRSGSAAAVRPALLVAVRDTVREWSAEERISGVLPELRKPAGGRGMRAAKSLTPENRVLAERSFLTLPGLSRCLLWHTEVEAESISVPAGLSGIGTDTATAALEQAREQFREGCVRAHRELAPTKECRLYNRLLDVPIRRGGALLPDVQRHLLGCRFCRNAAEQLSHFEGALGGLLAEAVLGWGARRYLESRPGRTPYGGRARGVSGSGGRPGSGGRHRLLAQIPAPGRRTPVGERGARAVLTGVGIASAAVLATFLVTGLWSNDDGNVDPTASTSASGGRTTVLPTPGSQIPPTVSSPPDSAGLPTTPRQTRLRNLAADLCLDVRGEAKAGAGTKLAVCSSAWTQQWTYEKDGLLRSVADPELCLDSGAVDGVAELGRCVAESSAHGGDVRYDLTVQGEVLSRRKGSLAVTPGNTDPDADIVVKVRDGSDKQRWLTDSPSDQPESLSIAGTTPPSATPATDAPAATPAPTPVPASPGTRLTDAPVASSAPPSENYGERRSLTVTDTSTPEPVLPLTVHLPDLLGEIGVGL	failed
MPSETTEHKTGPAVTVVIVSYQSGPTLEPCLARLAAQTFRDFETILIDNFSTDGAPQAAAKAHPWVDFVEAGANLGFAAGNNLAARRAKGRWLVLLNPDAYAEPDWLEELMAGAARHPTVKSFASLQLSADRPGLLDGAGDNVTSAGIPFRGGYGRKPPAVLPEGEVFSACGAAMLIDRDLFLSVGGFDERYFCYCEDVDLGYRLRLYGEPTLLLPKAKVAHVGSASTGVRSDFSIFHGSRNRVWTFLKNTPGWLLPVTLPLHVAVTAGLLLLHWRRGDVAPAIRGIRAALKREDLDQVMADRRLIQARRKASPGAILRVMSIDPAAFIGRRFVIRKWRGA	failed
MPSGRTHTKINLISLPVVLFMLFSYGLTNFDFLLTFAIGFLVGTTFLTPDLDTYSNAYNKWGFLRIFWYPYKKVMPHRSFFTHTIILGDVIRIAYMLIVFSPFLFLLNVIALDGNLIEMAKEHEVEIVTFVMGIVVASTLHIIADKVNTRRKKMMRKKKKRRR	failed
MPSLLETKGPKITLGLDLRGGLNMLLGVQTDEALKNKYLSLASALEYNAKKQNILLKDIKSNLEGISFELLDEDEAKKLDALLLELQGHSQFEIKKEAGFYSVNLTPLEQEELRKNTILQVIGIIRNRLDQFGLAEPVVIQQGKEEISVQLPGIKTLEEERRAKDLISRSAHLQMMAVDEEHNKDAMKMTDLEAQKLGSVLLSDVEMGGKILLKAIPILDGEMLTDAKVVYDQNNQPVVSFTLDAQGAKIFGDFSGANVGKRMAIVLDNKVYSAPVIRERIGGGSGQISGNFSVAQASDLAIALRSGAMSAPIQVLEKRIIGPSLGKDSVKTSIIALVGGFILVMGFMVLYYSMAGVIACLALVVNLFLIVAVMAIFGATLTLPGMAGIVLTVGIAVDANIIINERIREVLRENEGIAKAIHLGYINASRAIFDSNITSLIASVLLYAYGTGAIKGFALTTGIGILASIITAIVGTQGIYQALLPKLTQTKSLYFWFGVNKRA	failed
MPSLPASAESLLPPTLDESTRLEVLRGLCLLDSPPDPVFDTVAAMAARSLDAEIAVVSLVDEHRQWFKARIGLEARETPRSQAFCAHAIRSDEVMVVPDAQLDPRFCDNPLVLGPPFIRFYAGAPLKLRDGHRIGTLCVIGTSPRPGLDQAAITQLEGLRDLAVLRVENLRSTTYRDGPTGLPNRSRFSEDLDTWLSQRDTAPATTAVAIDVCGSDYFRDMVKALGWEYADGYIALAQRRLAAYLPGGTLLYRLDPTTFGFLAQAEGQRLATLCTKVSKAFTEPLEHQGIPHTAVASIGAVSLQSSYGAADTIRSLTTAVDIARERCLPWSMYERKHDVAQRNTFRLLAALPAALDSSSQLRLHFQPRVDLHDHRCVGVEALLRWQHPMIGPVMPSDFIPMAEKTALINRITAWVIDNGIAQAARWQQQGLDFNLALNVSAADLDRPGFAGLLRRGLDRHKLDPRRLEIEFTESAMIRHPDHLAEQLAAIAALGVHIAIDDFGTGYSNFSYLKQLPASSLKIDQSFIRSLPDSRTDRTLVPAMIQLGHSLGQRVVAEGIESAEAYAQLRAWGCDEGQGYWIAKPMPAAALETWLETPWHEQHAAPVNLLAASLAAARV	failed
MPSMPFLTRPVLAAGTFSGAPQPTLPTGDGLVLRPWRTEDAPAVHVAFQDPVMHQWHARAADSEEEVRGWITEWQGAWERERGVQWAVADAADDRLLGRVALREWVLGDGVAEVAYWTTADARGRGVAARATRTLAHWALDEIGFQRLELLHAVANDASCRVAQKTGFALEGTKRKAVLHPDGWHDMHLHARVRGD	failed
MPSPARTLLLAFVSAWFLLGGLGHFVFTDFFVGIVPPYVPWPLAAVWVSGVFELLGAAALLVPAWRRLAACGLFILTLCVTPANLYMWQHPDLFPSFPPTLLAARLALQAFLLGCILALMLARDEAPLARR	failed
MPSSAFPDTRMTLACRRMAGGASALPSFRMGAGLAFQPGLENAMSTVQDYIVADIGLADYGRKELDIAETEMPGLMSCRSELGETKPLKGARISGSLHMTIQTAVLIETLTALGAEVRWASCNIFSTQDHAAAAIAASGVPVFAVKGESLTEYWDYTDRIFQWTDGGQSNMILDDGGDATMYILLGARAEAGENVLVNPSSEEEEILFAQIKKRMAATPGFFTKQRDAIKGVTEETTTGVNRLYQLSQKGLLPFPAINVNDSVTKSKFDNKYGCKESLVDGIRRATDVMMAGKVAVVCGYGDVGKGCAASLIGAGARVKVTEVDPICALQAAMDGFEVVRLEDVVKTADIFITTTGNKDVIRIEHMREMKDMAIVGNIGHFDNEIQVVALKNLKWVNIKPQVDMIEFPAGNRMILLSEGRLLNLGNATGHPSFVMSASFTNQVLAQIELFTKPDAYKNQVYVLPKHLDEKVARLHLEKLGVRLTELSDEQASYIGVTPSGPFKADHYRY	failed
MPSSILSESMIQAFFWSLITIGMYFITQKLYRRWPFWWLMPLALTPILVASVVLLLHVNYQDYFRGTKWLVLLIGPATVAFAIPIYEKRALIRQHWPVLLIGVIVGSFTAIASSWGLAILLGLDDNLRLSLLPRSISTPFAIEISRGIGAAPDLTAIFVIVTGILGAILGEFILSRLPFNSALARGALLGVGAHAAGTAQAHKIGNTEGAIASLAMILVGLFNILLLPLISYLLK	failed
MPTCAPAMVTTLYETPEHACLMFSDLVDDHDDQSVQTNQFLVVDHGHGALIDPGGNMTYNALYLAMNQYFPPKQLDYVLASHADPDIVASAGRWLTSSNCNILISRVWERFLPHFCNVGKTDGRILPIPDTGMAIPIGQSHLLAVPAHFLHSEGNFQFYDPVSRILFSGDLGASMVHAEIAAAPVEDFDAHIPLMAPFHRRYMSGNRVCRLWAEMVRGLEIEWIVPQHGRAFHGPAMVRRFIDWVETLTCGIDLMTQETFRLPALPRVAAGAPLRTPQP	failed
MPTDRSTPATRHRLGGWMASEEAHMAAYREKIAGEARAHAGERLRTPAVQELARLFDDNAVLRMSLTRAIDEALESGRKLGYASIGELMTVIDHLMTYTPPFSESSLIVCPLNAFLDWPMCMPSGHAVFRDAAVNAHLKQVLNVWCDFLGGPHSCTHLDTSAPDGWFCDEARERLGLSQFQYQEDQPHWGFASWNDFFTRRFRADARPVTAPGDPHVIVSACEAQPYHAESNLKIRDKFWIKGQPYSLRDIFTPARLPLAERFVGGDLYQAYLSAYNYHRWHAPVRGTVTHAYRVDGTYYSVAEAEGPDPAGLNDSQGYMTAVAARAVIAIDCDDPGIGTVVGVFVGMGDVSSCVIEVMPGQRIDKGEEIGYFQYGGSTYCLLFEPGVIDHFVHAPPFDDDTPVVQVNAPVAIAR	failed
MPTDYIRNGVLYVTENYLCFESSKSGSSKRNKVIKLVDITDIQKYKVLSVLPGSGMGIAVSTPSTQKPLVFGAMVHRDEAFETILSQYIKITSAAASGGDS	failed
MPTFNPELHAQTLNSERAYFVQPDADPAFTPHIGALVEMLTYARLTTLQAVEGLPEDQLWATAPGFANSIGTLLAHIAAVERVYHVLSFQGRDVTPEDDGAAYWGLTMGKEGTAPARLPTLDELRAELADARAETLRVFAAKDDAWLAEPLGPGWANQHWAWFHVMEDEVNHRGQLRLLRQVLAPEEGG	not failed
MPTIEDRYARLDAARWLAALAVVLLHSAAQTVSDPAAYGSHAWLAANLYDSAAHWCVPVFVMVSGALLLDPDQPHDARRFYSRRMARVCAPLLFWTLFYLAWRTALDWWDDGRLDFSFWPRKVAEGAPYYHLWYLYMIVGLYLFAPLVRLLYARSQPRARALWVVGILGVAVLDALYRRALGGGNGLFLTWFLPYLGYFVAGRLIFDGELRMPRPGLVLAASVAATAWGVSALSDSRALDLYFYDYFSVTVPLMSLAAFQLIVGSPRLPALPALPALAPLTFGIYLIHPLFLDLAHRIGAARAWRPDAWGVPAITAAVFALSALASWMLRRHRLTRRLV	failed
MPTLDALTPIFRQVFDDDSIVLTRETSANDIDAWDSLSHMNLIVSLEVHYKIKFALGELQKLKNVGDLADLVDKKLARKLEHHHHHH	failed
MPTLLMITPENLEIKRFRAYQLNNFMQLTMPYLAGFVPKEYDIRLLDEHTEPIIFEKFDLVAITVNTPNAPYAYAISKKFRELGSWVALGGPHVTLNPEEAALHCDTIFIGEAEETWPQFLNDFLCKKAQKVYTSSRAPSLAGLPIPRRDLIVGNRFISGAVFASRGCPHNCSYCSLKKIYHNTFRTRPVDEVIKDIASMPNKYFVFWDDNFFADPSYTKALLKDLAKLNKKWAAQVTAHSCEDEELLRLAKSAGCLYLFLGLESFSEQGLKDANKSFNKIEQYGKIADKLHRHGISIQAGIVFGFDSDTPDVFETTLKACNDIGIDGVTASILTPFPGTGIYDQYKNEGRLLDVGWNYYNGKTRVAYVPKQMSPEELLNGYNEFRRKFYSWKSIIKRICKSRVNIFYNLAMNYGYRQAYRNFAKLDIGDSKGMNIFEQLI	failed
MPTNAGTSLSSYKHIVAIGTTVKSESLESAAYEIPRKRKMRSDSAAVSGNSVSTPKKLKSHLPSSVPNPGMSEKEVVEDSNEILRYPVNLAVSDCLGTKSKWSPRDEEQMRAVKEALHVSKAPSTILCREDEQIRIFEFVKGCIDQQKAGSLYICGCPGTGKSLSMEKVVQQVGDWSTQAGLPPVDTLSVNCTSLSKTTDIFSKILGEIKPGKNANTNSSPLQHLQNLFSQKQESSSSRMMLIIADEMDYLITKDRGVLYDLFMLTTLPFSRCILIGVANAIDLADRFLPKLKSLNCKPMVITFRAYSKDQILRILQERLRVLSYVAFQPKALELCARKVAAASGDMRKALCVCRSALEILEIETRGSTGPESQGPTPDDSVVRMDHMAAALSKTFKSPVVETIQSLPQHQQIIICAAAKAFRGSKKDATVGELNKLYLEICKSWMISPAGITEFTNMCTVLNDQGILKVGQARRDKLKRVSLRVDESDITFALQVNSLFILFFANP	failed
MPVDLQALYPRLIHLMLDTVFVVDRDNQIVFVSDACKTLLGYEACELIGTPITRYMHPDDLAATRASIMRVMNGQPHYDFCNRYLRKDGSVVHILWAACWSEEAQARIGVARDVTAQRKAEDELRFLAHHDPLTRLANRAMFNERLDTALAAARRHNRRLALLFLDINDFKQINDNHGHSVGDRVLCTLARRLERCVGAAGTVARMGGDEFTVLLPDCPSPEAIATHVQHILAVMAEPLDAEFAGIDAPSCSIGVARFPEDGNDADMLLRHADGHMYRIKRQRAATG	failed
MPVIHCNKDDSQEASSQTPFLPLGFVFTKLYICLTIYSGGDDESMDGDINKYLVLAIIGVGGLSGLVASQSTGRNFPPATANKTVGR	failed
MPVKLATALSNNLFPALDSQLRAGRHIGIEELENHVFLMDFQEVLEEFYSRYNVELIRAPEGFFYLRPRSTTLIPRSVLSELDMMVGKILCYLYLSPERLAHEGIFSQQELYEELLSLADESKLLKLVNQRSTGSDLDRQKLQEKVRTSLNRLRRLGMIYFMGNDSSKFRITESVFRFGADVRSGDDAREAQLRMIRDGEAMPVEGSLSLKDDSDDNDRTDDTAPETGEDELEHHHHHH	failed
